Source: paper PMC9361823, “The α- and β-Subunit Boundary at the Stem of the Mushroom-Like α3β3-Type Oxygenase Component of Rieske Non-Heme Iron Oxygenases Is the Rieske-Type Ferredoxin-Binding Site” (Applied and Environmental Microbiology, 2022)

B1: β-subunit of CumDO-O (CumA2) (natural protein, Pseudomonas fluorescens IP01, UniProt Q51744 1-186, looked up)
chain: MTSADLTKPIEWPEMPVSLELQNAVEQFYYREAQLLDYQNYEAWLALLTQDIQYWMPIRTTHTSRNKAMEYVPPGGNAHFDETYESMRARIRARVSGLNWTEDPPSRSRHIVSNVIVRETESAGTLEVSSAFLCYRNRLERMTDIYVGERRDILLRVSDGLGFKIAKRTILLDQSTITANNLSQFF
notes: CumA2, β-subunit of CumDO-O (cumene dioxygenase oxygenase component), not tagged; also called 21-kDa β-subunit
B2: α-subunit of CumDO-O (CumA1) (natural protein)
chain: not shown
notes: CumA1, α-subunit of CumDO-O (cumene dioxygenase oxygenase component); also called 51-kDa α-subunit; not shown: His6, C-terminal, kept

Biological target: the molecule itself
Assay: SEC; α (His6) and untagged β co-expressed in E. coli and co-purified by metal chelation and gel filtration (Superdex200; 20 mM Tris-HCl, 0.2 M NaCl, 10% glycerol, pH 7.4); 150- to 200-kDa complex in solution (Fig. S1; the text does not say how the size was estimated)

| Protein | binding result |
| --- | --- |
| B1 | binds |
| B2 | binds |
